Measurements: the supplement of paper PMC9170038

System: K4 kissing-loop RNA reporter
Assay: apparent KD of K4 kissing-loop reporter; higher = weaker reporter binding
Conditions: Eterna round: R107
Method: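 RNA-MaP round R107: designed RNA switches with theophylline, tryptophan, arginine or FMN aptamers are transcribed on-chip within common flanks. They are titrated with a labelled K4 kissing-loop RNA reporter in RNA-MaP buffer (100 mM Tris pH 7.5, 80 mM KCl, 4 mM MgCl2), without ligand or with the indicated ligand. Median apparent KD per design.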

[1] = input ligand: theophylline 20 uM
[2] = input ligand: tryptophan 2.4 mM
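Also: bound reporter read as fluorescence of individual clusters on recovered sequencing chips by microscopy, with normalized cluster intensities fitted with a binding model.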

Sequence | apparent KD of K4 kissing-loop reporter (input ligand: FMN 200 uM) [nM] | apparent KD of K4 kissing-loop reporter (input ligand: arginine 13.2 mM) [nM] | apparent KD of K4 kissing-loop reporter (input ligand: none) [nM] | apparent KD of K4 kissing-loop reporter [1] [nM] | apparent KD of K4 kissing-loop reporter [2] [nM]
AACACUCAACGGAGUGAUGUUCUGGAAAACCGAGGACCGGUACGGCCGCCACUCGGAAAUGAGUGAGUCCUACGAAAAGUAGGAC [Omei inspired 2] | 160 | 161 | 150 | 157 | 125
AAACAUUGGUCUGAUACCAGCUUGAUCGGAAAACGAUCUGCUGGAGUGAUGUUCCAAUAAAGCCCUUGGCAGCAGACCGAUGAAA [MAT - Same State Theophlline B - Mod of Eli - D13] | 823 | 444 | 818 | 684 | 722
ACACUUUACGUAGGAUAUGCGACGAGUGAUGUUCGUCAGGCGGCUUUAGAUUAAACAAGCCGCCUAGCAGAAGGACGGGCAGUGU [Zaorleon] | 126 | 147 | 188 | 178 | 144
UGCGUCGGUUCAGAUACCAGCCAAUUAGAGUCGAGUGAUGUUCGACAUUGAACGUCCAAAGGCCCUUGGCAGCUGGAUUGAGGAU [Same State Theophylline B GF 21] | 211 | 104 | 114 | 189 | 87.3
AGUGAUAUAUGAGGAUAUGGGUUUGUUAAUGAGUUAGUUUUAGUGUUGUUUGGUUAGUGAUGUUAUUUAGAAGGCGUGAGUGAUG [vkkjkjmullin] | 103 | 79.8 | 79.9 | 140 | 72.8
CUUGUACAAGUGAUGUUUGUUAUAUCCGAAGGAGCGUCGUAAUAGACAGGUAGGUCGCGGAGUUAGCUGGUUUUUUUAACAGCUA [JR_Nu_SSArginiA_Sub030] | 621 | 421 | 679 | 472 | 584
UGAUAGGACAGAAGGAGCGGGAGUGAUGUUCCCAAAAGGGUAAGGUGUCAAAAGACACCCUCCCAGGUAGGUCGCUGUCCUAUCU | 155 | 191 | 154 | 175 | 148
UGUCAUUGGUCGGCCGCCACUAGGACCGGGUAUAACCCAGUGAUGUUGGUAAAUACGGCCGCCACUAGGACCGGGACCGAUGACU [TrypBS 14 #DoubleAptamer #SwitchBubble #K4Middle] | 263 | 233 | 255 | 280 | 173
CAUGUGUCUGGAAGGAGCGCGGGUUGGUUAAACACUGUCGCGGGCCAGUGAUGUUGGAAUCCGCAGGUAGGUCGCCAGCCACUUG [Araton] | 284 | 476 | 350 | 533 | 460
AAACAUCACUGGGAGUGAUGUUCUCAGUGACGAGGACCGGUACGGCCGCCACUCGCGAGAGAACUAGUCUAGACUUGACUGCAUU [Excl Tryptophan A V14] | 386 | 366 | 356 | 425 | 428
UUAAGGGUCCGAGGAUAUCUCCCAGUGAUGUUGGGCGAUACGGCCCUUAAGACGAAUGGUUGAAGGAGAGAAGGCGGCUCCCGAU [Onatbi] | 119 | 132 | 108 | 126 | 110
AUUAAUAACUGAGGAUAUCGAAAUUAUGUAGUGAUGUUACUGUAAAUUCAAAUUUUCAUUUCUUAACGAGAAGGCAGAAUAAUUA [JR_ExcFMNB_Sub012] | 173 | 185 | 115 | 200 | 86.8
GCCGUAGAUUGAAGGAGCGGUAUGGGCGGUGGCUGAGUGAUGUUCAGGAAAAGUGGCUUCUACCAGGUAGGUCGCAAUCUACGGC | 108 | 103 | 127 | 146 | 113
UCAGUUCACGGGCGCCGCAAACCGCAGGAUACCAGUCACAUCGCUGACCCUUGGCAGCCUAUGGACUAGUGAUGUUAGUCCAGGA [theeternabot_sameState_KL_Theo_A_37] | 98.5 | 95.2 | 128 | 117 | 115
AAACAUUGGUGCGAUACCAGCUGAUCGGAAACGAUCUUGCUGGAGUGAUGUUCCAAGUAAAGCCCUUGGCAGCGCACCGAUGAAA [MAT - Same State Theophlline B - Mod of Eli - D21] | 135 | 31.7 | 91.5 | 72 | 75.7
AGACUACCUACACUGUCAAUAGACAGUGACUAGGAUAUGCUGAUAAGCAGAAGGAGUGAUGUUCCAAAUAAAAGGUGGUAGUCAU [FmnAX 18 #SwitchBubble #StaticStem #K4Early] | 378 | 160 | 142 | 152 | 111
GCCGUACGCAUGGAUACCAGCACACAACGAAGUGAUGUUUCGUGCGUAGAUUUGUGCUACUGCCCUUGGCAGCCAUGCGUACGGC | 86.6 | 69 | 82.2 | 69.3 | 78.6
AGUGGACGUGUCCGGAGUGAUGUUCCGGAUACCAGACACGAAAGUGUCCCUUGGCAGCAGGAGUGAUGUUCCGGCGUUCACUAAA [Omei KL Theo A Exc B v3] | 351 | 223 | 314 | 347 | 274
GCCGUACGCAUGGAUACCAGCUAGACCGAGUGAUGUUCAGGUCUGAAUGCCGGUAUCAAGAGCCCUUGGCAGCCAUGCGUACGGC | 382 | 265 | 301 | 329 | 292
CGGAGUGAUGUUCCGUUAAUUCCUUAUUUACGAGGACCGGUACGGCCGCCACUCGAUUUUGCUUUUAUUUAAUGUUUGGAAAUUU [JR_SSTryptoA_Sub007] | 256 | 274 | 269 | 317 | 122
AUAUUGGUUGAGAGUGAUGUUCCUUGUGUUCGAGGACCGGUACGGCCGCCACUCGGGUAGAAAAUAAAAGAUGUGUUUGAUUUUU [BDazzled - #13 SS Tryptophan A] | 237 | 101 | 125 | 185 | 212
GGUUCCUCAGUGAUGUUGAGGUGACCUCGGCAGGAUAUAGGCAUUACUAGAAGGGCCAAAAGAACCCUGUCCAGCGACACAGGGU [Inatinar] | 157 | 304 | 310 | 259 | 265

Sequence | apparent KD of K4 kissing-loop reporter (input ligand: FMN 200 uM) [nM] | apparent KD of K4 kissing-loop reporter (input ligand: arginine 13.2 mM) [nM] | apparent KD of K4 kissing-loop reporter (input ligand: none) [nM] | apparent KD of K4 kissing-loop reporter [1] [nM] | apparent KD of K4 kissing-loop reporter [2] [nM]
UGGAGUUGACGAAAAGUCAACUCCUGAGAAGGAGCGGACGAAAGUCCAGGUAGGUCGCUCACUACCAGUGAUGUUGGUACUUUAA | 228 | 285 | 320 | 361 | 222
AAGGCCACGAGAAGGAGCGUGUUGUGGAGUGAUGUUCCAUUGUAGACCUAAGGUCUGCAAGCACAGGUAGGUCGCUCGUGGUCAA [whbob_SS_Arginine_B_2t149] | 127 | 123 | 139 | 138 | 127
UGACUGGACUGAAGGAGCGCUUAACUCCUAGUGAUGUUAGGGAAACGAGACAAAGUCUCGAAGCAGGUAGGUCGCAGUCUAGUCU | 216 | 164 | 217 | 211 | 194
AACUGGGUUCGUGAUACCAGCUCACACAUGAGUGAUGUUCAUGUAGUGGGUAAAAUGUGGAGCCCUUGGCAGCACUGUGACCACG [XTheo-B1] | 91.5 | 76.4 | 81.2 | 67.5 | 81.3
UACAUUGCAGUCUUCUUCGUCCUAGAAGACUAGGAUAUCAGGAAACUGAGAAGGAGUCUCUGCAGUGAUGUUGCAGCUAGGACGA [[K]'-[F2]'-[F1]'-[F1]-[F2]-[K1]-[K2]-[F]''_Design1] | 128 | 134 | 103 | 157 | 126
GGAUAGGAUAGAGGAUAUGGUAUAUGCAAGAAUAACUUAUCGUGUAAAUCCAUAGGGAGUGAUGUUCCAGAAGGCUGUCCUAUCG [MatMod 11 - Jieux - Exclusion - FMN B] | 921 | 244 | 308 | 324 | 229
CACGAUGAAUUCUCUAGGAGUGAUGUUUUUCGAGGACCGGUACGGCCGCCACUCGGACGACGAGCGUGGUAGCGGGCUGAAGACU [iuullin] | 521 | 205 | 1120 | 674 | 771
UUAGUCUAGAGAGGAUAUCAGUGAUGUUGAUAUCAAGAUCAUAGAUAGAAUUCUAUCUAUGAUCAAUGAGAAGGCUCUAGACAUU [AK1 Exc FMN B] | 746 | 141 | 161 | 155 | 163
AAGGUUGUGCAUGGGAGUGAUGUUCCCACGCAGGAUAUCGCUCUCGCGAGAAGGGCGAGCACAACCGCUCAAGAAACUUGAGCAA [Omei KL FMN A SS C v3] | 129 | 320 | 480 | 402 | 388
CCAUAUUCGUCGGCCGCCACUAUAAGCCAUCAUACAUUGGCUCUGUGAAAGUGAUGUUUUCUUGAUAGGACCGGGACUGUCAGCA [theeternabot_sameState_KL_Trp_B_24] | 975 | 739 | 1020 | 903 | 646
CCUAUCUCAUACGAUACCAGUCGUCGAGUGAUGUUCGAUUAAAUAAAUUUGCCAAAUAACGACCCUUGGCAGCGUAUGGGAUAGG [Ex Theophylline B K4 16] | 273 | 295 | 318 | 334 | 326
AAAGUUGAAAGUGAUACCAGACGAGUGAAGGGAAGAAAUUAAUUUGGAGUGAUGUUCCGCGUCCCUUGGCAGCACUUUGUAAUUU [Exclusion Theophylline B GF 23] | 123 | 150 | 142 | 174 | 107
UGUACCGAGUCAGGAUAUGGCGUCGAAAGACGAAUCUUAGUGAUGUUAAGGAUCUGCGAAAGCAGUCCAGAAGGGACUUGGUACU [FmnBS 26 U37+A49] | 236 | 422 | 495 | 444 | 475
ACAGUCGGCUGUGAUACCAGUCGUAUAACAACAUGUUGCAGUGAUGUUGCGAGAUAGGAUGACCCUUGGCAGCACUCAGUACGAC [Same State Theophylline B GF11] | 324 | 101 | 248 | 328 | 150
CCUAUCUCAUACGAUACCAGUGAAUUUAUGUUUAUUAGCAGUGAUGUUGCAUUCCAAGUACACCCUUGGCAGCGUAUGGGAUAGG [Ex Theophylline B K4 23] | 178 | 201 | 205 | 193 | 151
AAACAUCACUGGGAGUGAUGUUCUCAGUGACGAGGACCGGUACGGCCGCCACUCGCGAGAGAUAUAGUCUAGUAUUGACUGCAUU [Excl Tryptophan A V11] | 242 | 244 | 231 | 339 | 348
CCUGCAGCUGUAACCGAGUGAUGAUACGGACGAGGACCGGUACGGCCGCCACUCGCCAGUGAUGUUGGUGUGGGAGGACGUAACU [KL-XTryp-A23] | 241 | 177 | 237 | 256 | 221
GGAUAGGAUAGAGGAUAUGGAUUAGGCAAGAAUAACUUGUCAUGUAAAUCCAUGAGGAGUGAUGUUCCAGAAGGCUGUCCUAUCG [MatMod 7 - Jieux - Exclusion - FMN B] | 349 | 116 | 114 | 112 | 90.7
CUACUGAGUGAUGUUCAACAUAAUGUCGAUACCAGCACAUUUGCCUGCCCUUGGCAGCGACGCACCAGGACCUGAGAGUACUGGU [theeternabot_sameState_KL_Theo_A_13] | 567 | 637 | 623 | 612 | 410
UUACUACCCAGUGAUGUUGGGUAGCGGCGGCGAGGACCGGUACGGCCGCCACUCGGCGCACGGGAGUGAUGUUCCUGGGAAUAUA [Same State Tryptophan A GF 10] | 281 | 187 | 375 | 709 | 254
GGAUAGGAUAGAGGAUAUGGGCUAGGCAAGAAUAACUUGUCUAGUAAAUCCAUGAGGAGUGAUGUUCCAGAAGGCUGUCCUAUCG [MatMod 2 - Jieux - Exclusion - FMN B] | 286 | 166 | 324 | 182 | 247
